Kd data for 2 molecules are collected here from paper PMC8420505 (2021).

For this test, the target named is Spike (SARS-CoV-2, UniProt P0DTC2). As to the kind of experiment: SPR.

B1: Clec4g (protein)
chain: MNTGEYNKLGSAIEEVSRGQLGRWECYKQRLFFLVLALLVATVLWALILSTLLSSASSKLRVLLSHQDLLRTNASEQKMTLSSLKDDIGACRNCCSVTKAQLQTTLAEFKDIQAKLMEQESILKELQERVTQDLAKASRDRENIRSELFQALEAVKRQNSSCEQCPPSWLPFQGSCYYFSETQATWDTAQSYCGGQGAHLVIVRGLNEQGFLSQHTRGRGYWLGLRAVRHLNKIQGYRWVDGASLNFSHWNSGEPNDSRGHEDCIMMLHSGLWNDAPCTNERDGWICEKRSSCY
What is called Kd is the constant that tells how readily two partners part at equilibrium. Low readings indicate a tighter complex, high ones a looser complex. For the molecule B1, the affinity, expressed as Kd, was 1600 nM.

B2: CD209c (protein)
chain: MRMHTRLQFLKRVSNVAYSHGQEQAKKEKVYKEMTQLKSQINRLCRPCPWDWTVFQGNCYFFSKFQQNWNDSVNACRKLDAQLVVIKSDDEQSFLQQTSKEKGYAWMGLSDLKHEGRWHWVDGSHLLFSFMKYWNKGEPNNEWEEDCAEFRGDGWNDAPCTIKKYWICKKSAMSCTEK
Molecule B2 displayed a dissociation constant (Kd) of 1000 nM.
